In paper PMC2148169 (The Journal of Cell Biology, 1998):

Target: the molecule itself
Test: SEC

B1: recombinant GST-Vps5p expressed in bacteria (natural protein)
chain: LEAPVWDELNHEGDKTQSLVSNSIESIGQISTNEERKDNELLETTASFADKIDLDSAPEWKDPGLSVAGNPQLEEHDNSKADDLINSLAPEQDPIADLKNSTTQFIATRESGGALFTGNANSPLVFDDTIYDANTSPNTSKSISGRRSGKPRILFDSARAQRNSKRNHSLKAKRTTASDDTIKTPFTDPLKKAEKENEFVEEPLDDRNERRENNEGKFTASVEKNILEQVDRPLYNLPQTGANISSPAEVEENSEKFGKTKIGSKVPPTEKAVAFKVEVKDPVKVGELTSIHVEYTVISESSLLELKYAQVSRRYRDFRWLYRQLQNNHWGKVIPPPPEKQSVGSFKENFIENRRFQMESMLKKICQDPVLQKDKDFLLFLTSDDFSSESKKRAFLTGSGAINDSNDLSEVRISEIQLLGAEDAAEVLKNGGIDAESHKGFMSISFSSLPKYNEADEFFIEKKQKIDELEDNLKKLSKSLEMVDTSRNTLAASTEEFSSMVETLASLNVSEPNSELLNNFADVHKSIKSSLERSSLQETLTMGVMLDDYIRSLASVKAIFNQRSKLGYFLVVIENDMNKKHSQLGKLGQNIHSEKFREMRKEFQTLERRYNLTKKQWQAVGDKIKDEFQGFSTDKIREFRNGMEISLEAAIESQKECIELWETFYQTNL
- binding result: binds
